Laboratory results taken from publication PMC10451225.
“And” between values parts separate entries of the source, which are not always exact repeats. Equal entries are not always repeated.

Experiments:
[1] = molecular target: Hyphomicrobium denitrificans SoxR, Strep-tagged wild type (Hyphomicrobium denitrificans); test: SEC; Superdex 75 Increase 10/300 GL, calibrated with mass standards; 50 mM Tris-HCl, pH 8.0, 150 mM NaCl; 0.8 mL/min; self-association of SoxR
[2] = molecular target: SoxR Cys50Ser Cys116Ser, Strep-tagged (Hyphomicrobium denitrificans); test: as above
[3] = molecular target: SoxR Cys50Ser, Strep-tagged (Hyphomicrobium denitrificans); test: as above
[4] = molecular target: SoxR Cys116Ser, Strep-tagged (Hyphomicrobium denitrificans); test: as above
[5] = molecular target: T1, SoxR (Hyphomicrobium denitrificans) (UniProt D8JT35); test: EMSA; conditions: EMSA: 10 mM Tris-HCl pH 8.0, 50 mM KCl, 1 mM DTT, about 7% glycerol, 17 nM DNA, 15 ul; 20 min at room temperature, then 30 min at 30 C with DNA; 6% native gel …
T1 sequence: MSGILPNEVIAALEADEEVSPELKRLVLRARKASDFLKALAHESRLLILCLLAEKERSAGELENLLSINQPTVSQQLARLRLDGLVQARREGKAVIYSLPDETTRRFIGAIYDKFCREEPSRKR

Substance: Hyphomicrobium denitrificans SoxR, Strep-tagged wild type (natural protein)
- stoichiometry N [1]: 2 and 4

Substance: SoxR Cys50Ser Cys116Ser, Strep-tagged (natural protein)
- stoichiometry N [2]: 2 and 4

Substance: SoxR Cys50Ser, Strep-tagged (natural protein)
- stoichiometry N [3]: 2 and 4

Substance: SoxR Cys116Ser, Strep-tagged (natural protein)
- stoichiometry N [4]: 2 and 4

Substance: GGGTCACCAAATTCTGCAGGTCTCAATGCGAATGCGAGGCTGCTCCAGCTAGACGAAAAACAAGGAACGTTGCAATAGATAATTCACATATGATAATTTTCATATGTGTTATAGGATGAACGTTATCGCAGCTTCCGGGAGAGATGGCGTGAT (double strand) [soxA-soxY intergenic fragment, 151 bp]
- binding [5]: binds
